# Values of other authors in patent US20050164248A1, “Compositions isolated from bovine tissues and methods for their use” (priority 1999, published 2005).
# B1: Lactoferrin (protein, UniProt P02788 20-710, looked up)
# Lactotransferrin: GRRRSVQWCAVSQPEATKCFQWQRNMRKVRGPPVSCIKRDSPIQCIQAIAENRADAVTLDGGFIYEAGLAPYKLRPVAAEVYGTERQPRTHYYAVAVVKKGGSFQLNELQGLKSCHTGLRRTAGWNVPIGTLRPFLNWTGPPEPIEAAVARFFSASCVPGADKGQFPNLCRLCAGTGENKCAFSSQEPYFSYSGAFKCLRDGAGDVAFIRESTVFEDLSDEAERDEYELLCPDNTRKPVDKFKDCHLARVPSHAVVARSVNGKEDAIWNLLRQAQEKFGKDKSPKFQLFGSPSGQKDLLFKDSAIGFSRVPPRIDSGLYLGSGYFTAIQNLRKSEEEVAARRARVVWCAVGEQELRKCNQWSGLSEGSVTCSSASTTEDCIALVLKGEADAMSLDGGYVYTAGKCGLVPVLAENYKSQQSSDPDPNCVDRPVEGYLAVAVVRRSDTSLTWNSVKGKKSCHTAVDRTAGWNIPMGLLFNQTGSCKFDEYFSQSCAPGSDPRSNLCALCIGDEQGENKCVPNSNERYYGYTGAFRCLAENAGDVAFVKDVTVLQNTDGNNNEAWAKDLKLADFALLCLDGKRKPVTEARSCHLAMAPNHAVVSRMDKVERLKQVLLHQQAKFGRNGSDCPDKFCLFQSETKNLLFNDNTECLARLHGKTTYEKYLGPQYVAGITNLKKCSTSPLLEACEFLRK
# Tested on: Candida albicans
# Details: general statement, no value
molecule,measurement,value
B1,inhibitory activity against Candida (statement on control peptide),extremely inhibitory
